Experimental data: patent US20230265215A1 (OMEROS, published 2023)

Experiments:
[1] = target: T1, CFD (human, UniProt P00746 26-253, limits assumed); test: solid phase ELISA, immobilized protease, apparent KD
T1 construct: Species read from 'Recombinant human MASP-2 or C1r, C1s, CFD, MASP-1 and MASP-3'; also called factor D; complement factor D
Excerpt: (§1) The apparent dissociation constant (KD) was estimated by nonlinear regression using a 4-parameter logistic model.

[2] = target: T2, C1s (human, UniProt P09871 16-688, limits assumed); test: as above
T2 construct: Species read from 'Recombinant human MASP-2 or C1r, C1s, CFD, MASP-1 and MASP-3'
T2 sequence (looked up): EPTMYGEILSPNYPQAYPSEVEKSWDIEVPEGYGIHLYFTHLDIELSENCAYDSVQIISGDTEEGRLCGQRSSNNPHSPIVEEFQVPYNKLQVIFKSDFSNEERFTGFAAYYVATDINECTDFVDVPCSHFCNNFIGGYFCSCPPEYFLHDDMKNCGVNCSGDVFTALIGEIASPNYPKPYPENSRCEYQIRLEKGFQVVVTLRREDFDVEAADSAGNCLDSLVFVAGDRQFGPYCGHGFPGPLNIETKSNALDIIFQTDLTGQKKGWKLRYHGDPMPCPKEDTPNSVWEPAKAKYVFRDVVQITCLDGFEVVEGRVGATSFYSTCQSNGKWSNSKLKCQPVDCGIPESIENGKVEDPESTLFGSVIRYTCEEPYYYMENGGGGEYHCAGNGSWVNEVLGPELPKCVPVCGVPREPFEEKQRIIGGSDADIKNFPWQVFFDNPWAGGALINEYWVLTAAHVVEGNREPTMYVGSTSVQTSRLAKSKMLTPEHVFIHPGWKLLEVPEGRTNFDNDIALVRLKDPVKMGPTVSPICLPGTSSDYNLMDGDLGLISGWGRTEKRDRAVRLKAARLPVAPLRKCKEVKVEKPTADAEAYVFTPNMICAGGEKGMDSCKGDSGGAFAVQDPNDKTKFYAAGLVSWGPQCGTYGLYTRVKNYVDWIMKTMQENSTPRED
Excerpt: as §1

[3] = target: T3, MASP-3 (human, UniProt P48740-2 20-728, limits assumed); test: as above
T3 construct: Species read from 'Recombinant human MASP-2 or C1r, C1s, CFD, MASP-1 and MASP-3'
T3 sequence (looked up): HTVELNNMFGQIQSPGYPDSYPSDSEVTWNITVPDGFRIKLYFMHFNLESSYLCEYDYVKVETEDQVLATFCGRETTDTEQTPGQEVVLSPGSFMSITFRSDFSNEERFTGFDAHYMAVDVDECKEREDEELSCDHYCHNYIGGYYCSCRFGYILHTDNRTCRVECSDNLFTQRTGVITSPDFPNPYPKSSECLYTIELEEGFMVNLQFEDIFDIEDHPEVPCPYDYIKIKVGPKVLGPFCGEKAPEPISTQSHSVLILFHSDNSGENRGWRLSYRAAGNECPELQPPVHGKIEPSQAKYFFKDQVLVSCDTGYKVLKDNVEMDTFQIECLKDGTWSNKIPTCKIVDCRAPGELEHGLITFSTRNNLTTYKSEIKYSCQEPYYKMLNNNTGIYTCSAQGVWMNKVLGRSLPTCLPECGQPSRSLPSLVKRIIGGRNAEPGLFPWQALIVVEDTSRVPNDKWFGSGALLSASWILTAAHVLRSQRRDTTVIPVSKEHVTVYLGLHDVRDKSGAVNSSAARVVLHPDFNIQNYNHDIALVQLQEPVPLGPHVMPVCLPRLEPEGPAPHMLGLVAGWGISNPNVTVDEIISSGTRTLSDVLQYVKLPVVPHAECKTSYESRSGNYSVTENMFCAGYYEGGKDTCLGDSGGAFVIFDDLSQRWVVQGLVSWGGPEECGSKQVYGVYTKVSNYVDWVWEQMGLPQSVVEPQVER
Excerpt: as §1

[4] = target: T2, C1s; test: solid phase ELISA, immobilized protease, mean apparent KD of two lots
Excerpt: as §1
(§2) Fold selectivity calculated as KD(related serine protease)/mean KD(MASP-2).

[5] = target: T4, C1r (human, UniProt P00736 18-705, limits assumed); test: as above
T4 construct: Species read from 'Recombinant human MASP-2 or C1r, C1s, CFD, MASP-1 and MASP-3'
T4 sequence (looked up): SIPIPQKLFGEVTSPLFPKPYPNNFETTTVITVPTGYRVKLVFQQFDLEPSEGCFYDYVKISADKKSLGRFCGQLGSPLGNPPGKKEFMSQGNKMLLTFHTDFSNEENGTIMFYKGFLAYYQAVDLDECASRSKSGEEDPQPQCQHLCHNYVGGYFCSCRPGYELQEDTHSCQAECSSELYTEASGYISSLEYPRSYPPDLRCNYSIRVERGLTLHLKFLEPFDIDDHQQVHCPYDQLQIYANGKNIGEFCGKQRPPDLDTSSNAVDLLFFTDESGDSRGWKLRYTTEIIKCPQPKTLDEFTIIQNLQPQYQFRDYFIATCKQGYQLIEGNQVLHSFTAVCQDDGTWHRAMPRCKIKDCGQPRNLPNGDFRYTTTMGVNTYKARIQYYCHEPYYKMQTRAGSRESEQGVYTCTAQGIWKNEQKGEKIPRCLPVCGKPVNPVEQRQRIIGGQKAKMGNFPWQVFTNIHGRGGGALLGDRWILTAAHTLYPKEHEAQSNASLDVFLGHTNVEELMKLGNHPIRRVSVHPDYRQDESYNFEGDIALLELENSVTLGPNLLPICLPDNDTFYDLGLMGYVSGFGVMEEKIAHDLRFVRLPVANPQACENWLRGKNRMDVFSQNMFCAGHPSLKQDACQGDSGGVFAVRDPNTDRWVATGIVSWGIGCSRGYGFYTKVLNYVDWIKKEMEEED
Excerpt: as §1, §2

Measured: Kd

T1 sequence (P00746 26-253 limits assumed): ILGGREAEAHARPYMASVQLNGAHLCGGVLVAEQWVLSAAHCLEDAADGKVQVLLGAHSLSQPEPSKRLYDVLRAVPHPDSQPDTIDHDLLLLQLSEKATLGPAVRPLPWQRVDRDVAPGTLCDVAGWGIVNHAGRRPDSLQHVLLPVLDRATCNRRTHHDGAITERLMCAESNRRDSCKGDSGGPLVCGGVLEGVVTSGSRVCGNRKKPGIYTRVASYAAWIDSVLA

B1: mAb OMS858 (humanized anti-MASP-2 antibody) (antibody, V domains shown)
VH: QVQLVQSGAEVKKPGASVKVSCKASGYTFTNHHMHWLRQAPGQGLEWIGDIDASDSETHYIEKFKDRATLTIDKSSSTAYMELSSLRSEDTAVYYCARGDITTTLRYFDVWGQGTLVTVSS
VL: DIQLTQSPSSLSASVGDRVTITCSASSSVRYMYWYQQKPGKAPKLLIYDTSNLASGVPSRFSGSGSGTDNTLTISSLQPEDFATYYCQQWSSYPLTFGQGTKVEIKR
notes: also called antibody OMS858; biotinylated OMS858
> 100 µg/mL: all assays above
